B1: Caspase recruitment domain-containing protein 14 (Homo sapiens), Q9BXL6-2 (parent)
chain: MGELCRRDSALTALDEETLWEMMESHRHRIVRCICPSRLTPYLRQAKVLCQLDEEEVLHSPRLTNSAMRAGHLLDLLKTRGKNGAIAFLESLKFHNPDVYTLVTGLQPDVDFSNFSGLMETSKLTECLAGAIGSLQEELNQEKGQKEVLLRRCQQLQEHLGLAETRAEGLHQLEADHSRMKREVSAHFHEVLRLKDEMLSLSLHYSNALQEKELAASRCRSLQEELYLLKQELQRANMVSSCELELQEQSLRTASDQESGDEELNRLKEENEKLRSLTFSLAEKDILEQSLDEARGSRQELVERIHSLRERAVAAERQREQYWEEKEQTLLQFQKSKMACQLYREKVNALQAQVCELQKERDQAYSARDSAQREISQSLVEKDSLRRQVFELTDQVCELRTQLRQLQAEPPGVLKQEARTREPCPREKQRLVRMHAICPRDDSDCSLVSSTESQLLSDLSATSSRELVDSFRSSSPAPPSQQSLYKRVAEDFGEEPWSFSSCLEIPEGDPGALPGAKAGDPHLDYELLDTADLPQLESSLQPVSPGRLDVSESGVLMRRRPARRILSQVTMLAFQGDALLEQISVIGGNLTGIFIHRVTPGSAADQMALRPGTQIVMVDYEASEPLFKAVLEDTTLEEAVGLLRRVDGFCCLSVKVNTDGYKRLLQDLEAKVATSGDSFYIRVNLAMEGRAKGELQVHCNEVLHVTDTMFQGCGCWHAHRVNSYTMKDTAAHGTIPNYSR
partner: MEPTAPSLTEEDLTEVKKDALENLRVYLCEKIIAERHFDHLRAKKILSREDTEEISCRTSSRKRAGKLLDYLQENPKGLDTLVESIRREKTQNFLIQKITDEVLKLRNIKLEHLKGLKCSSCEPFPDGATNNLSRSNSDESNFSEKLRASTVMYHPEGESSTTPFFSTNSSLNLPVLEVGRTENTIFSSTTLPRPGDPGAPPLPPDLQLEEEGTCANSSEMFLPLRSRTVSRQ
B2: Caspase recruitment domain-containing protein 14 (Homo sapiens), Q9BXL6-1 (parent)
chain: MGELCRRDSALTALDEETLWEMMESHRHRIVRCICPSRLTPYLRQAKVLCQLDEEEVLHSPRLTNSAMRAGHLLDLLKTRGKNGAIAFLESLKFHNPDVYTLVTGLQPDVDFSNFSGLMETSKLTECLAGAIGSLQEELNQEKGQKEVLLRRCQQLQEHLGLAETRAEGLHQLEADHSRMKREVSAHFHEVLRLKDEMLSLSLHYSNALQEKELAASRCRSLQEELYLLKQELQRANMVSSCELELQEQSLRTASDQESGDEELNRLKEENEKLRSLTFSLAEKDILEQSLDEARGSRQELVERIHSLRERAVAAERQREQYWEEKEQTLLQFQKSKMACQLYREKVNALQAQVCELQKERDQAYSARDSAQREISQSLVEKDSLRRQVFELTDQVCELRTQLRQLQAEPPGVLKQEARTREPCPREKQRLVRMHAICPRDDSDCSLVSSTESQLLSDLSATSSRELVDSFRSSSPAPPSQQSLYKRVAEDFGEEPWSFSSCLEIPEGDPGALPGAKAGDPHLDYELLDTADLPQLESSLQPVSPGRLDVSESGVLMRRRPARRILSQVTMLAFQGDALLEQISVIGGNLTGIFIHRVTPGSAADQMALRPGTQIVMVDYEASEPLFKAVLEDTTLEEAVGLLRRVDGFCCLSVKVNTDGYKRLLQDLEAKVATSGDSFYIRVNLAMEGRAKGELQVHCNEVLHVTDTMFQGCGCWHAHRVNSYTMKDTAAHGTIPNYSRAQQQLIALIQDMTQQCTVTRKPSSGGPQKLVRIVSMDKAKASPLRLSFDRGQLDPSRMEGSSTCFWAESCLTLVPYTLVRPHRPARPRPVLLVPRAVGKILSEKLCLLQGFKKCLAEYLSQEEYEAWSQRGDIIQEGEVSGGRCWVTRHAVESLMEKNTHALLDVQLDSVCTLHRMDIFPIVIHVSVNEKMAKKLKKGLQRLGTSEEQLLEAARQEEGDLDRAPCLYSSLAPDGWSDLDGLLSCVRQAIADEQKKVVWTEQSPR
partner: B1 partner

How the values were obtained:
Details in all cases: with bcl10_human BCL10, O95999
[1] = variants of: B1
[2] = variants of: B1; remark: listed apart in the source
[3] = variants of: B2; remark: listed apart in the source
[4] = variants of: B2; remark: listed apart in the source

| effect of a mutation on the interaction [1] | effect of a mutation on the interaction [2] | effect of a mutation on the interaction [3] | effect of a mutation on the interaction [4] | Variant |
| --- | --- | --- | --- | --- |
| increasing interaction strength | with no effect | – | – | E138A |
| increasing interaction strength | with no effect | – | – | G117S |
| – | – | with no effect | increasing interaction strength | E138A |

— IntAct's records for PubMed 27071417
